Measured values taken from patent US7238663B2, “Pre-mixes of GLP-1 and basal insulin” (Eli Lilly and Company, priority 2001, dated 2007).
Where “and” joins values, the source holds several entries; their conditions need not be identical. Identical values can stand only once.

Biological target: T1, human GLP-1 receptor (Homo sapiens, UniProt P43220)
T1 construct: expressed in transfected cells; host or cells: HEK-293 Aurora CRE-BLAM cells
Test: GLP-1 receptor activation (in vitro potency, CRE-BLAM fluorescence assay)
Format: cell-based
Settings: relative in vitro potency from EC50, HEK-293 Aurora CRE-BLAM cells; Val^8-GLP-1(7-37)OH control = 1
Text: These HEK-293 cells have stably integrated a DNA vector having a cAmp response element (CRE) driving expression of the β-lactamase (BLAM) gene. […] The assay is further described in Zlokarnik, et al., (1998) Science 279:84-88 (See also Example 1).

T1 sequence (P43220 24-463): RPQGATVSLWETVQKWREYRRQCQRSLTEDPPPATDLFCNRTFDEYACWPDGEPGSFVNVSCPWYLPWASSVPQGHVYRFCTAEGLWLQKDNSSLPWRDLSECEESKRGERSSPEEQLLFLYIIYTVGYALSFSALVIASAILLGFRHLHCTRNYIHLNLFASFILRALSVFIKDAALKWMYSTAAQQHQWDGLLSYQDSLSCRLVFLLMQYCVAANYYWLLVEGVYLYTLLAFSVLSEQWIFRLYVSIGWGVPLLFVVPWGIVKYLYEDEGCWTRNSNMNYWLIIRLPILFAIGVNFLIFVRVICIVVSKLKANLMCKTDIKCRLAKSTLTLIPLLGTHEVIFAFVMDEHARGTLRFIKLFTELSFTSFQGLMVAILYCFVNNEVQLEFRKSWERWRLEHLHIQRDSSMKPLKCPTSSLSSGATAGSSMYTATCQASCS

| Substance | GLP-1 receptor activation relative to Val^8-GLP-1(7-37)OH |
| --- | --- |
| Val^8-Glu^22-Ile^33-GLP-1(7-37)OH (HVEGTFTSDVSSYLEEQAAKEFIAWLIKGRG) | 4.7 and 3.8 and 3.4 |
| Val^8-Trp^16-Glu^22-GLP-1(7-37)OH (HVEGTFTSDWSSYLEEQAAKEFIAWLVKGRG) | 4.9 and 4.6 |
| Val^8-Tyr^18-Glu^22-GLP-1(7-37)OH (HVEGTFTSDVSYYLEEQAAKEFIAWLVKGRG) | 5.1 and 5.9 |
| Val^8-Glu^22-Val^25-GLP-1(7-37)OH (HVEGTFTSDVSSYLEEQAVKEFIAWLVKGRG) | 4.7 and 2.9 |
| Val^8-Tyr^16-Glu^22-GLP-1(7-37)OH (HVEGTFTSDYSSYLEEQAAKEFIAWLVKGRG) | 3.6 and 3.8 |
| Val^8-Glu^22-Val^25-Ile^33-GLP-1(7-37)OH (HVEGTFTSDVSSYLEEQAVKEFIAWLIKGRG) | 4.9 and 5.8 and 6.7 |
| Val^8-Val^16-GLP-1(7-37)OH | 1.1 |
| Val^8-Cys^16-Lys^26-Arg^34-GLP-1(7-37)OH | 2.4 and 1.9 |
| Val^8-Cys^16-Lys^26-GLP-1(7-37)OH | 4.2 |

Tested on: not listed separately
Test: GLP aggregation assay (turbidity at 350 nm)
Format: physicochemical
Settings: compared to GLP-1(7-37)OH or Val^8-GLP-1(7-37)OH
Description: GLP peptides can be analyzed with respect to their potential to aggregate in solution.
In general, peptides in solution are stirred at elevated temperature in a suitable buffer while recording turbidity at 350 nm as a function of time. Time to the onset of aggregation is measured to quantify the potential of a given GLP molecule to aggregate under these stressed conditions.
A GLP-1 compound is first dissolved under alkaline conditions (pH 10.5) for 30 minutes to dissolve any pre-aggregated material. The solution is then adjusted to pH 7.4 and filtered. Specifically, 4 mg of a lyophilized GLP-1 compound is dissolved in 3 ml of 10 mM phosphate/10 mM citrate. The pH is adjusted to 10.0-10.5 and held for 30 minutes. The solution is adjusted with HCl to pH 7.4 and filtered through a suitable filter, for example a Millex GV syringe filter (Millipore Corporation, Bedford, Mass.). This solution is then diluted to a final sample containing 0.3 mg/mL protein in 10 mM citrate, 10 mM phosphate, 150 mM NaCl, and adjusted to pH 7.4 to 7.5. The sample is incubated at 37° C. in a quartz cuvette. Every five minutes the turbidity of the solution is measured at 350 nm on an AVIV Model 14DS UV-VIS spectrophotometer (Lakewood, N.J.). For 30 seconds prior to and during the measurement the solution is stirred using a magnetic stir bar from Stama Cells, Inc. (Atascadero, Calif.). An increase in OD at 350 nm indicates aggregation of the GLP-peptide. The time to aggregation is approximated by the intersection of linear fits to the pre-growth and growth phase according to method of Drake(Arvinte T, Cudd A, and Drake A F.(1993) J. Bio. Chem. 268, 6415-6422).
The cuvette is cleaned between experiments with a caustic soap solution (e.g., Contrad-70).
The results for a number of GLP-1 compounds are reported in Table 8 as the time in hours required for the compound to aggregate.

| Substance | propensity to aggregate in solution |
| --- | --- |
| Val^8-Glu^22-GLP-1(7-37)OH (HVEGTFTSDVSSYLEEQAAKEFIAWLVKGRG) | markedly decreased propensity to aggregate |
| Val^8-His^37-GLP-1(7-37)OH (HVEGTFTSDVSSYLEGQAAKEFIAWLVKGRH) | markedly decreased propensity to aggregate |
| Val^8-Glu^30-GLP-1(7-37)OH (HVEGTFTSDVSSYLEGQAAKEFIEWLVKGRG) | markedly decreased propensity to aggregate |

Tested on: not listed separately
Test: GLP-1 compound/soluble basal insulin mixtures: clarity and final concentrations by HPLC
Format: physicochemical
Settings: 2.1 mg in 1 ml 0.01 N HCl, pH 11.3 then adjusted to 4.0
Description: Exendin-4 (160 μg) was dissolved in 100 μL of commercial Lantus® insulin ([…], 3.6378 mg/mL). […] The solution was stored at 5° C. […] The pH was 4.0 Final concentrations of Exendin-4 and Lantus® were determined by reverse phase HPLC to be 0.9 mg/mL Exendin-4 and 3.5 mg/mL Lantus®. Based on known concentrations of excipients in the commercial formulation of Lantus®, the final concentrations of excipients in the mixture were as follows: 2.7 mg/mL m-cresol, 30 μg/mL zinc, and 17 mg/ml glycerol.
Exendin-4 (290 μg) was dissolved in 100 μL of commercial Lantus® insulin U100, 3.6378 mg/mL). […] The pH of the solution was adjusted to 4.0 with NaOH. Final concentrations of Exendin-4 and Lantus® were determined by reverse phase HPLC to be 1.6 mg/mL Exendin-4 and 3.5 mg/mL Lantus®. […]
Exendin-4 (529 μg) was dissolved in 500 μL of commercial Lantus® insulin (U100, 3.6378 mg/mL). […] Final concentrations of Exendin-4 and Lantus® were calculated to be 1 mg/mL Exendin-4 and 3.5 mg/mL Lantus®. […]
A stock solution of Val^8-Glu^22-GLP-1(7-37)OH was prepared by dissolving 2.1 mg of Val^8-Glu^22-GLP-1(7-37)OH in 1 ml of 0.01 N HCl. […] Final concentrations of Val^8-Glu^22-GLP-1(7-37)OH and Lantus® were determined by reverse phase HPLC to be 0.5 mg/mL Val^8-Glu^22-GLP-1(7-37)OH and 2.4 mg/mL Lantus®. […]

| Substance | appearance of stock solution |
| --- | --- |
| Val^8-Glu^22-GLP-1(7-37)OH (HVEGTFTSDVSSYLEEQAAKEFIAWLVKGRG) | remained clear |

Same assay, conditions: 4.8 mg in 1.5 ml Stock solution A (glycerin, meta-cresol, zinc), pH 11 then adjusted to 4.0

| Substance | appearance of stock solution |
| --- | --- |
| Val^8-Glu^22-GLP-1(7-37)OH (HVEGTFTSDVSSYLEEQAAKEFIAWLVKGRG) | remained clear |
